Laboratory results published in patent US12186374B2 (Sanofi-Aventis Deutschland GmbH, priority 2014, dated 2025).

Test system: patients with Type 2 diabetes mellitus (T2DM)
Assay: Treatment-emergent adverse events incl. serious, fatal, leading to discontinuation (Example 2)
[1] = PT ≥3% in any treatment group, Safety population
[2] = SOC, PT ≥ 3% in any treatment group, Safety population

## Gly(A21)-Arg(B31)-Arg(B32)-human insulin [Insulin Glargine]
Example 2
  Diarrhea, % of patients: 4.3%
  Nausea, % of patients: 3.6%
  Nausea, number of patients: 17 patients
  Overall incidence of gastrointestinal adverse events: 12.6%
  Patients reporting treatment-emergent adverse events, %: 48.6%
  Patients reporting treatment-emergent adverse events, number: 227 patients
  Patients who withdrew from treatment due to TEAEs: 1.9%
  Patients with at least 1 TEAE leading to death: 3 patients
  Serious TEAEs, % of patients: 4.1%
  Serious TEAEs, number of patients: 19 patients
  Upper respiratory tract infection, % of patients: 4.9%
  Withdrawals caused by gastrointestinal adverse events: 0.2%
[1]
  TEAE: Back pain: 10 (2.1%) n (%)
  TEAE: Diarrhoea: 20 (4.3%) n (%)
  TEAE: Dizziness: 7 (1.5%) n (%)
  TEAE: Headache: 15 (3.2%) n (%)
  TEAE: Influenza: 11 (2.4%) n (%)
  TEAE: Nasopharyngitis: 25 (5.4%) n (%)
  TEAE: Nausea: 17 (3.6%) n (%)
  TEAE: Upper respiratory tract infection: 23 (4.9%) n (%)
  TEAE: Vomiting: 7 (1.5%) n (%)
PT, Safety population
  Serious TEAE: Acquired phimosis: 0 n (%)
  Serious TEAE: Acute kidney injury: 0 n (%)
  Serious TEAE: Acute myocardial infarction: 1 (0.2%) n (%)
  Serious TEAE: Acute pulmonary oedema: 1 (0.2%) n (%)
  Serious TEAE: Anaphylactic reaction: 0 n (%)
  Serious TEAE: Angioedema: 0 n (%)
  Serious TEAE: Bladder prolapse: 1 (0.2%) n (%)
  Serious TEAE: Bronchitis: 1 (0.2%) n (%)
  Serious TEAE: Calculus urinary: 1 (0.2%) n (%)
  Serious TEAE: Cardiac failure acute: 1 (0.2%) n (%)
  Serious TEAE: Cardiac failure chronic: 1 (0.2%) n (%)
  Serious TEAE: Cardiac failure congestive: 1 (0.2%) n (%)
  Serious TEAE: Cervical dysplasia: 0 n (%)
  Serious TEAE: Cholecystitis chronic: 0 n (%)
  Serious TEAE: Chronic obstructive pulmonary disease: 1 (0.2%) n (%)
  Serious TEAE: Comminuted fracture: 1 (0.2%) n (%)
  Serious TEAE: Coronary artery disease: 1 (0.2%) n (%)
  Serious TEAE: Costochondritis: 1 (0.2%) n (%)
  Serious TEAE: Death: 0 n (%)
  Serious TEAE: Diabetes mellitus inadequate control: 0 n (%)
  Serious TEAE: Dyspnoea: 1 (0.2%) n (%)
  Serious TEAE: Electrocardiogram ST-T segment abnormal: 0 n (%)
  Serious TEAE: Erysipelas: 0 n (%)
  Serious TEAE: Febrile infection: 0 n (%)
  Serious TEAE: Hydronephrosis: 1 (0.2%) n (%)
  Serious TEAE: Hypertension: 1 (0.2%) n (%)
  Serious TEAE: Lacunar infarction: 1 (0.2%) n (%)
  Serious TEAE: Lipase increased: 1 (0.2%) n (%)
  Serious TEAE: Lung cancer metastatic: 0 n (%)
  Serious TEAE: Lung neoplasm malignant: 0 n (%)
  Serious TEAE: Meningitis staphylococcal: 0 n (%)
  Serious TEAE: Metabolic acidosis: 0 n (%)
  Serious TEAE: Metastases to liver: 0 n (%)
  Serious TEAE: Metrorrhagia: 0 n (%)
  Serious TEAE: Myocardial infarction: 1 (0.2%) n (%)
  Serious TEAE: Non-cardiac chest pain: 1 (0.2%) n (%)
  Serious TEAE: Oesophagitis: 0 n (%)
  Serious TEAE: Palpitations: 0 n (%)
  Serious TEAE: Pancreatic carcinoma: 1 (0.2%) n (%)
  Serious TEAE: Pancytopenia: 1 (0.2%) n (%)
  Serious TEAE: Pneumonia: 1 (0.2%) n (%)
  Serious TEAE: Prostate cancer recurrent: 1 (0.2%) n (%)
  Serious TEAE: Pyelonephritis acute: 1 (0.2%) n (%)
  Serious TEAE: Radiculopathy: 0 n (%)
  Serious TEAE: Renal colic: 0 n (%)
  Serious TEAE: Respiratory failure: 0 n (%)
  Serious TEAE: Spinal osteoarthritis: 0 n (%)
  Serious TEAE: Squamous cell carcinoma of skin: 0 n (%)
  Serious TEAE: Squamous cell carcinoma of the oral cavity: 1 (0.2%) n (%)
  Serious TEAE: Tendon rupture: 0 n (%)
  Serious TEAE: Thyroid adenoma: 1 (0.2%) n (%)
  Serious TEAE: Toxicity to various agents: 0 n (%)
  Serious TEAE: Transient ischaemic attack: 0 n (%)
  Serious TEAE: Urinary tract infection: 0 n (%)
  Serious TEAE: Urosepsis: 1 (0.2%) n (%)
  Serious TEAE: Urticaria: 0 n (%)
  TEAE leading to death: Acute myocardial infarction: 1 (0.2%) n (%)
  TEAE leading to death: Acute pulmonary oedema: 1 (0.2%) n (%)
  TEAE leading to death: Cardiac failure acute: 1 (0.2%) n (%)
  TEAE leading to death: Cardiac failure congestive: 0 n (%)
  TEAE leading to death: Death: 0 n (%)
  TEAE leading to death: Lung cancer metastatic: 0 n (%)
  TEAE leading to death: Squamous cell carcinoma of the oral cavity: 1 (0.2%) n (%)
  TEAE leading to permanent treatment discontinuation: Abdominal distension: 0 n (%)
  TEAE leading to permanent treatment discontinuation: Abdominal pain: 0 n (%)
  TEAE leading to permanent treatment discontinuation: Acute myocardial infarction: 1 (0.2%) n (%)
  TEAE leading to permanent treatment discontinuation: Acute pulmonary oedema: 1 (0.2%) n (%)
  TEAE leading to permanent treatment discontinuation: Alanine aminotransferase increased: 0 n (%)
  TEAE leading to permanent treatment discontinuation: Anaphylactic reaction: 0 n (%)
  TEAE leading to permanent treatment discontinuation: Atrial fibrillation: 0 n (%)
  TEAE leading to permanent treatment discontinuation: Back pain: 0 n (%)
  TEAE leading to permanent treatment discontinuation: Bacteraemia: 0 n (%)
  TEAE leading to permanent treatment discontinuation: Blood creatinine increased: 0 n (%)
  TEAE leading to permanent treatment discontinuation: Bronchitis: 1 (0.2%) n (%)
  TEAE leading to permanent treatment discontinuation: Cardiac failure acute: 1 (0.2%) n (%)
  TEAE leading to permanent treatment discontinuation: Cardiac failure congestive: 0 n (%)
  TEAE leading to permanent treatment discontinuation: Colitis: 0 n (%)
  TEAE leading to permanent treatment discontinuation: Comminuted fracture: 1 (0.2%) n (%)
  TEAE leading to permanent treatment discontinuation: Cough: 1 (0.2%) n (%)
  TEAE leading to permanent treatment discontinuation: Death: 0 n (%)
  TEAE leading to permanent treatment discontinuation: Decreased appetite: 0 n (%)
  TEAE leading to permanent treatment discontinuation: Depression: 1 (0.2%) n (%)
  TEAE leading to permanent treatment discontinuation: Diabetic mononeuropathy: 0 n (%)
  TEAE leading to permanent treatment discontinuation: Diarrhoea: 0 n (%)
  TEAE leading to permanent treatment discontinuation: Drug hypersensitivity: 1 (0.2%) n (%)
  TEAE leading to permanent treatment discontinuation: Dyspepsia: 1 (0.2%) n (%)
  TEAE leading to permanent treatment discontinuation: Extradural abscess: 0 n (%)
  TEAE leading to permanent treatment discontinuation: Fatigue: 1 (0.2%) n (%)
  TEAE leading to permanent treatment discontinuation: Gastritis erosive: 0 n (%)
  TEAE leading to permanent treatment discontinuation: Headache: 1 (0.2%) n (%)
  TEAE leading to permanent treatment discontinuation: Injection site erythema: 0 n (%)
  TEAE leading to permanent treatment discontinuation: Insomnia: 0 n (%)
  TEAE leading to permanent treatment discontinuation: Lipase increased: 1 (0.2%) n (%)
  TEAE leading to permanent treatment discontinuation: Lung cancer metastatic: 0 n (%)
  TEAE leading to permanent treatment discontinuation: Lung neoplasm malignant: 0 n (%)
  TEAE leading to permanent treatment discontinuation: Meningitis staphylococcal: 0 n (%)
  TEAE leading to permanent treatment discontinuation: Myocardial infarction: 1 (0.2%) n (%)
  TEAE leading to permanent treatment discontinuation: Nausea: 0 n (%)
  TEAE leading to permanent treatment discontinuation: Pancreatic carcinoma: 1 (0.2%) n (%)
  TEAE leading to permanent treatment discontinuation: Rash: 1 (0.2%) n (%)
  TEAE leading to permanent treatment discontinuation: Skin burning sensation: 0 n (%)
  TEAE leading to permanent treatment discontinuation: Urinary tract infection: 0 n (%)
  TEAE leading to permanent treatment discontinuation: Urticaria: 0 n (%)
  TEAE leading to permanent treatment discontinuation: Vomiting: 0 n (%)
[2]
  TEAE: Gastrointestinal disorders: 59 (12.6%) n (%)
  TEAE: Infections and infestations: 126 (27.0%) n (%)
  TEAE: Musculoskeletal and connective tissue disorders: 41 (8.8%) n (%)
  TEAE: Nervous system disorders: 30 (6.4%) n (%)
SOC, Safety population
  Serious TEAE: Blood and lymphatic system disorders: 1 (0.2%) n (%)
  Serious TEAE: Cardiac disorders: 6 (1.3%) n (%)
  Serious TEAE: Gastrointestinal disorders: 0 n (%)
  Serious TEAE: General disorders and administration site conditions: 1 (0.2%) n (%)
  Serious TEAE: Hepatobiliary disorders: 0 n (%)
  Serious TEAE: Immune system disorders: 0 n (%)
  Serious TEAE: Infections and infestations: 2 (0.4%) n (%)
  Serious TEAE: Injury, poisoning and procedural complications: 1 (0.2%) n (%)
  Serious TEAE: Investigations: 1 (0.2%) n (%)
  Serious TEAE: Metabolism and nutrition disorders: 0 n (%)
  Serious TEAE: Musculoskeletal and connective tissue disorders: 1 (0.2%) n (%)
  Serious TEAE: Neoplasms benign, malignant and unspecified (incl cysts and polyps): 4 (0.9%) n (%)
  Serious TEAE: Nervous system disorders: 1 (0.2%) n (%)
  Serious TEAE: Renal and urinary disorders: 2 (0.4%) n (%)
  Serious TEAE: Reproductive system and breast disorders: 0 n (%)
  Serious TEAE: Respiratory, thoracic and mediastinal disorders: 3 (0.6%) n (%)
  Serious TEAE: Skin and subcutaneous tissue disorders: 0 n (%)
  Serious TEAE: Vascular disorders: 1 (0.2%) n (%)
  TEAE leading to death: Cardiac disorders: 2 (0.4%) n (%)
  TEAE leading to death: General disorders and administration site conditions: 0 n (%)
  TEAE leading to death: Neoplasms benign, malignant and unspecified (incl cysts and polyps): 1 (0.2%) n (%)
  TEAE leading to death: Respiratory, thoracic and mediastinal disorders: 1 (0.2%) n (%)
  TEAE leading to permanent treatment discontinuation: Cardiac disorders: 3 (0.6%) n (%)
  TEAE leading to permanent treatment discontinuation: Gastrointestinal disorders: 1 (0.2%) n (%)
  TEAE leading to permanent treatment discontinuation: General disorders and administration site conditions: 1 (0.2%) n (%)
  TEAE leading to permanent treatment discontinuation: Immune system disorders: 1 (0.2%) n (%)
  TEAE leading to permanent treatment discontinuation: Infections and infestations: 1 (0.2%) n (%)
  TEAE leading to permanent treatment discontinuation: Injury, poisoning and procedural complications: 1 (0.2%) n (%)
  TEAE leading to permanent treatment discontinuation: Investigations: 1 (0.2%) n (%)
  TEAE leading to permanent treatment discontinuation: Metabolism and nutrition disorders: 0 n (%)
  TEAE leading to permanent treatment discontinuation: Musculoskeletal and connective tissue disorders: 0 n (%)
  TEAE leading to permanent treatment discontinuation: Neoplasms benign, malignant and unspecified (incl cysts and polyps): 1 (0.2%) n (%)
  TEAE leading to permanent treatment discontinuation: Nervous system disorders: 1 (0.2%) n (%)
  TEAE leading to permanent treatment discontinuation: Psychiatric disorders: 1 (0.2%) n (%)
  TEAE leading to permanent treatment discontinuation: Respiratory, thoracic and mediastinal disorders: 2 (0.4%) n (%)
  TEAE leading to permanent treatment discontinuation: Skin and subcutaneous tissue disorders: 1 (0.2%) n (%)
Safety population
  Patients with any TEAE: 227 (48.6%) n (%)
  Patients with any TEAE leading to death: 3 (0.6%) n (%)
  Patients with any TEAE leading to permanent treatment discontinuation: 9 (1.9%) n (%)
  Patients with any serious TEAE: 19 (4.1%) n (%)
